What was measured:
[1] = molecular target: Mtb ThyX (thymidylate synthase ThyX) (Mycobacterium tuberculosis, UniProt P9WG57); assay: […]; also NADPH oxidase assay (IC50 about […]); format: biochemical
[2] = system: O=c1ccn([C@H]2C[C@H](O)[C@@H](COP(=O)(O)O)O2)c(=O)[nH]1; assay: purified protein; settings: FAD
[3] = system: NC(=O)C1=CN([C@@H]2O[C@H](COP(=O)(O)OP(=O)(O)OC[C@H]3O[C@@H](n4cnc5c(N)ncnc54)[C@H](OP(=O)(O)O)[C@@H]3O)[C@@H](O)[C@H]2O)C=CC1; assay: purified protein; settings: FAD
[4] = system: Nc1nc2c(c(=O)[nH]1)N1CN(c3ccc(C(=O)N[C@@H](CCC(=O)O)C(=O)O)cc3)C[C@H]1CN2; assay: purified protein; settings: FAD

Mtb ThyX (thymidylate synthase ThyX), sequence (P9WG57 whole entry): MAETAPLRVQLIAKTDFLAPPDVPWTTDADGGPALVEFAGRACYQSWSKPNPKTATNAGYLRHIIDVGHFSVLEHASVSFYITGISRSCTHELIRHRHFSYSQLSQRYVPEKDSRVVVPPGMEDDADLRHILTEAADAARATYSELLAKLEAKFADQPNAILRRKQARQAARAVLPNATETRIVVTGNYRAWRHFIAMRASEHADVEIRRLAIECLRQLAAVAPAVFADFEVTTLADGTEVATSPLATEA

CC1=CC(=O)c2c(O)cccc2C1=O [plumbagin, 5-hydroxy-2-methyl-1,4-naphthoquinone]
Ki [1]: 8.21 µM

Mtb ThyX (thymidylate synthase ThyX) (Mycobacterium tuberculosis H37Rv)
Km [2]: 3.526 ± 0.68 µM
Vmax [2]: 0.00695 µmol/min/mg
Km [3]: 35.22 µM
Vmax [3]: 0.00323 µmol/min/mg
Km [4]: 6.467 µM
Vmax [4]: 0.00228 µmol/min/mg

Reference: publication PMC6999906 (PLoS ONE, 2020)
